Data reported in publication PMC9019252.

Legend:
PABPC1 RRM1/2/3/4 = PABPC1 RRM1/2/3/4 (human, UniProt P11940 1-370); experiment: SPR
PABPC1 (full length) = PABPC1 (full length) (human, UniProt P11940 1-636); experiment: SPR
PABPC1 RRM4 = PABPC1 RRM4 (human, UniProt P11940 290-371); experiment: ITC
PABPC1 RRM2/3 = PABPC1 RRM2/3 (human, UniProt P11940 100-289); experiment: ITC
PABPC1 RRM1 = PABPC1 RRM1 (human, UniProt P11940 1-99); experiment: ITC
PABPC1 RRM2 = PABPC1 RRM2 (human, UniProt P11940 100-190); experiment: ITC
PABPC1 RRM3 = PABPC1 RRM3 (human, UniProt P11940 191-289); experiment: ITC
Chain of PABPC1 RRM3 (P11940 191-289): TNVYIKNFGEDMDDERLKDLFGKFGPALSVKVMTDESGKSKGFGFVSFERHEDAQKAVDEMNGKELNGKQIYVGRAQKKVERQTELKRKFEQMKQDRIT

Chain of PABPC1 RRM2 (P11940 100-190): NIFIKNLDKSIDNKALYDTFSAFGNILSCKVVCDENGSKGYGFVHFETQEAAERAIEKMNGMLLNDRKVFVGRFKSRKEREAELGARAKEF
Chain of PABPC1 RRM2/3 (P11940 100-289): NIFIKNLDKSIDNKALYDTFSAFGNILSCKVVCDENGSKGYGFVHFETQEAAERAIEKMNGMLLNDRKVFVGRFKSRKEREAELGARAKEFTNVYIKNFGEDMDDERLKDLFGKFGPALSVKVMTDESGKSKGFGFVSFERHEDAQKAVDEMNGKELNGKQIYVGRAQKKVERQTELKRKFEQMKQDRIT
Chain of PABPC1 (full length) (P11940 whole entry): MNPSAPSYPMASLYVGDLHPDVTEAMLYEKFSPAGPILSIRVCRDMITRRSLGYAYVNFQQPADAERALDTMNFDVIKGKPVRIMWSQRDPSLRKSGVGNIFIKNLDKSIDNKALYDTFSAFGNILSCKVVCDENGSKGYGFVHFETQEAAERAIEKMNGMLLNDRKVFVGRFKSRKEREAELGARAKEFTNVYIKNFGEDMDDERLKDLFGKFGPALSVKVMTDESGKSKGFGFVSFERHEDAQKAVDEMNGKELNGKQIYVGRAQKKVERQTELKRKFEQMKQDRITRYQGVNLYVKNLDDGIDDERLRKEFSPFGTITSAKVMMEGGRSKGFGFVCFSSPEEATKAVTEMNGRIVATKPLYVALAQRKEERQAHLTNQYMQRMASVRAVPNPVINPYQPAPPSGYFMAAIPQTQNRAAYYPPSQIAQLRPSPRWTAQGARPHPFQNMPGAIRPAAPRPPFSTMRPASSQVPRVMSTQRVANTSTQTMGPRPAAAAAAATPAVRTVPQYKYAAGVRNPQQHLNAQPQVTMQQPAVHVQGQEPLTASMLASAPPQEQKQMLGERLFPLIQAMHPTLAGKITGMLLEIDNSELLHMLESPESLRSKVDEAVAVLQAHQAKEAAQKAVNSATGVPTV
Chain of PABPC1 RRM4 (P11940 290-371): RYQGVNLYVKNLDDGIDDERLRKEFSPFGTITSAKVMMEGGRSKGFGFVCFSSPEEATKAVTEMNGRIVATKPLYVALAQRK
Chain of PABPC1 RRM1 (P11940 1-99): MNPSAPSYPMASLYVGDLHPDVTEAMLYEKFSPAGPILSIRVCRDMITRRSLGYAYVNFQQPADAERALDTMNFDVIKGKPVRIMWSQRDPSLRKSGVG
Chain of PABPC1 RRM1/2/3/4 (P11940 1-370): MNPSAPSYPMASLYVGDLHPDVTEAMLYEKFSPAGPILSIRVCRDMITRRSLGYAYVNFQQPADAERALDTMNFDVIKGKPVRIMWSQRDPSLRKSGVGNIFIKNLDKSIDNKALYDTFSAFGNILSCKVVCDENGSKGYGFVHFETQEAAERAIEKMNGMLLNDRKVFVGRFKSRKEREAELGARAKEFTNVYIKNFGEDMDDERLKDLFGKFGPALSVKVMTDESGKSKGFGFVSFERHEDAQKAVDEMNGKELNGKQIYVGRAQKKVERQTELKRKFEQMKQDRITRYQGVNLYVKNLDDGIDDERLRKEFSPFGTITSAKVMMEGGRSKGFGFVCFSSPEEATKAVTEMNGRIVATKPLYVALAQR

Binder | binding result (PABPC1 RRM1/2/3/4) | binding result (PABPC1 (full length)) | binding result (PABPC1 RRM4) | Kd (PABPC1 RRM2/3) | binding result (PABPC1 RRM1) | Kd (PABPC1 RRM2) | Kd (PABPC1 RRM3)
AAAAAAAAAAAAAAAAAAAAAAAA (ssRNA) [A24] | binds | binds |  |  |  |  | 
AAAAAAA (ssRNA) [A7] |  |  | no binding | 0.71 ± 0.1 µM | no binding | 200 ± 40 µM | 4.7 ± 0.3 µM
AAAAAAAAAAAA (ssRNA) [A12] |  |  |  | 0.0013 ± 0.0006 µM |  | 70 ± 3 µM | 
